Measurements as given in paper PMC11753425.
One block for each substance: values may come before it.

Key:
[1] = molecular target: OrfGExt (purified, WT) (Streptococcus thermophilus); experiment: crystal structure; sitting drop, 20°C; WT in 1.26 M ammonium sulfate, 100 mM sodium cacodylate pH 6.5; A204C-A264C in 40% PEG 300, 100 mM potassium phosphate citrate pH 4.2
[2] = molecular target: full-length OrfG-A204C-A264C (purified) (Streptococcus thermophilus); experiment: SEC-MALS; membrane proteins, Superose 6 10/300 Increase, 50 mM tris-HCl pH 8, 300 mM NaCl, 0.1% OGNG
[3] = molecular target: OrfGExt-A204C-A264C (Streptococcus thermophilus); experiment: crystal structure; sitting drop, 20°C; WT in 1.26 M ammonium sulfate, 100 mM sodium cacodylate pH 6.5; A204C-A264C in 40% PEG 300, 100 mM potassium phosphate citrate pH 4.2
[4] = molecular target: OrfGExt-A204C-A264C (Streptococcus thermophilus); experiment: SEC-MALS; soluble proteins, Superdex 200 Increase, 50 mM tris-HCl, 100 mM NaCl, pH 8
[5] = molecular target: Orf13-V164C-Q280C (not stated (Tn916, an ICE widespread in Enterococcus faecalis and other firmicutes)); experiment: as above
[6] = molecular target: full-length OrfG-A204C-A264C produced in S. thermophilus (Streptococcus thermophilus); experiment: cross-linking; disulfide cross-linking of engineered cysteines in S. thermophilus; membrane fractions with or without DTT, SDS-PAGE, Western blot with Ab-G

Substance: OrfGExt-A204C-A264C (domain or fragment)
stoichiometry N [3]: 3
stoichiometry N [4]: 3

Substance: Orf13-V164C-Q280C (domain or fragment)
stoichiometry N [5]: 3

Substance: full-length OrfG-A204C-A264C produced in S. thermophilus (natural protein)
stoichiometry N [6]: 3

Next, values leading:

stoichiometry N [1]: 3
Substance: OrfGExt (purified, WT) (domain or fragment)

stoichiometry N [2]: 3
Substance: full-length OrfG-A204C-A264C (purified) (natural protein)
